From US20180140689A1 (PROBIODRUG, published 2018)
Non-standard residues stand in square brackets, D forms with d. No end group written: not given here. pGlu = O=C1CC[C@@H](C(=O)O)N1

T1: human Aβ pE3-18 peptide, pEFRHDSGYEVHHQKLV (human)
T1 construct: The range 3-18 counts on the Aβ peptide; also called pE3-Aβ18; pE3-Aβ peptide
T1 peptide: [pGlu]FRHDSGYEVHHQKLV

B1: humanized antibody clone #6 sequence variant VH: SEQ ID NO: 27, VL: SEQ ID NO: 14 (antibody, human IgG1, V domains shown)
VH: QVQLVQSGAEVKKSGASVKVSCKASGYSFTGHTMNWVRQAPGQGLEWMGLINPSNGVTRYNQKFQGRVTITRDTSTTTVHMELTSLTSEDTATYYCTREAKREWDETYWGQGTLVTVSS
VL: DVVMTQSPLSLPVTLGQPASISCKSSQSLLYSDGKTYLNWFQQRPGQSPRRLTYLVSKLDSGVPDRFSGSGSGTDFTLKISRVEAEDVGVYYCVQGTHFPFTFGGGTKVEIK
B2: humanized antibody clone #6 sequence variant VH: SEQ ID NO: 27, VL: SEQ ID NO: 15 (antibody, human IgG1, V domains shown)
VH: QVQLVQSGAEVKKSGASVKVSCKASGYSFTGHTMNWVRQAPGQGLEWMGLINPSNGVTRYNQKFQGRVTITRDTSTTTVHMELTSLTSEDTATYYCTREAKREWDETYWGQGTLVTVSS
VL: DVVMTQSPLSLPVTLGQPASISCKSSQSLLHSDGKTYLNWFQQRPGQSPRRLTYLVSKLDSGVPDRFSGSGSGTDFTLKISRVEAEDVGVYYCVQGTHFPFTFGGGTKVEIK
B3: humanized antibody clone #6 sequence variant VH: SEQ ID NO: 27, VL: SEQ ID NO: 13 (antibody, human IgG1, V domains shown)
VH: QVQLVQSGAEVKKSGASVKVSCKASGYSFTGHTMNWVRQAPGQGLEWMGLINPSNGVTRYNQKFQGRVTITRDTSTTTVHMELTSLTSEDTATYYCTREAKREWDETYWGQGTLVTVSS
VL: DVVMTQSPLSLPVTLGQPASISCKSSQSLLYSDGKTYLNWFQQRPGQSPRRLAYLVSKLDSGVPDRFSGSGSGTDFTLKISRVEAEDVGVYYCVQGTHFPFTFGGGTKVEIK
B4: humanized antibody clone #6 sequence variant VH: SEQ ID NO: 24, VL: SEQ ID NO: 14 (antibody, human IgG1, V domains shown)
VH: QVQLVQSGAEVKKSGASVKVSCKASGYSFTGHTMNWVRQAPGQGLEWMGLINPSNGVTRYNQKFQGRVTITRDTSTTTVHMELTSLTSEDTAVYYCTREAKREWDETYWGQGTLVTVSS
VL: DVVMTQSPLSLPVTLGQPASISCKSSQSLLYSDGKTYLNWFQQRPGQSPRRLTYLVSKLDSGVPDRFSGSGSGTDFTLKISRVEAEDVGVYYCVQGTHFPFTFGGGTKVEIK
B5: humanized antibody clone #6 sequence variant VH: SEQ ID NO: 70, VL: SEQ ID NO: 14 (antibody, human IgG1, V domains shown)
VH: QVQLVQSGAEVKKSGASVKVSCKASGYSFTGHTMNWVRQAPGQGLEWMGLINPSNEVTRYNQKFQGRVTITRDTSTTTVHMELTSLTSEDTATYYCTREAKREWDETYWGQGTLVTVSS
VL: DVVMTQSPLSLPVTLGQPASISCKSSQSLLYSDGKTYLNWFQQRPGQSPRRLTYLVSKLDSGVPDRFSGSGSGTDFTLKISRVEAEDVGVYYCVQGTHFPFTFGGGTKVEIK

These molecules were tested against full length human CD32A on CHO cells (human) (UniProt P12318) (assay: FACS on CHO cells stably expressing full length human CD32A, bound antibody detected with fluorochrome-conjugated anti-Fab').
Chain of full length human CD32A on CHO cells (human) (P12318 34-317): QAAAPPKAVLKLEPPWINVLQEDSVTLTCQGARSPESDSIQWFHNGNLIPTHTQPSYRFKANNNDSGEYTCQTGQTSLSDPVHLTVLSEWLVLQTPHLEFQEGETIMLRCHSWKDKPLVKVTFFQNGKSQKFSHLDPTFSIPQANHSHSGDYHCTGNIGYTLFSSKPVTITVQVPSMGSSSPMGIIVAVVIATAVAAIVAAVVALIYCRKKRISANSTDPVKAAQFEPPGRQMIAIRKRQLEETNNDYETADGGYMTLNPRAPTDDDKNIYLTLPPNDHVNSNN

Q: For “antibody comprising the K324A mutant variant of the human IgG1 Fc region (SEQ ID NO: 74)”, which EC50 (read off the curve) is on record?
A: 100 nM

Q: Which EC50 (read off the curve) does the source give for “antibody comprising the human IgG1 Fc wild-type region of SEQ ID NO: 73” here?
A: 100 nM

Molecular target: T1, human Aβ pE3-18 peptide, …
Experiment: SPR, 1:1 Langmuir fit
Protocol: First a polyclonal α-human antibody was coupled to an SPR-Chip subsequent loaded with the humanized antibody until the Response Unit was more than 1000.
Kinetic measurement was performed at different concentrations (of 5 to 1000 nM) of AβpE3-18-peptide. The graphs of the measured series are shown as an overlay plot with the sensorgrams, corrected by the sensogram measuring the running buffer, aligned at the time of injection and the baseline adjusted to zero before injection. The results are evaluated according to a simple 1:1 interaction model (Langmuir fit), which promote the koff and kₒₙ rate constants.

Q: With B1 as the molecule, how does the Kd read?
A: 5.09 nM

Q: And the koff?
A: 0.00323 s⁻¹

Q: And the kon?
A: 635000 M⁻¹ s⁻¹

Q: B2 was tested. Which Kd did it give?
A: 15.5 nM

Q: What about the koff of the same molecule?
A: 0.00415 s⁻¹

Q: What about the kon of the same molecule?
A: 267000 M⁻¹ s⁻¹

Q: Which Kd does the source give for B3 here?
A: 7.35 nM

Q: And the koff?
A: 0.00413 s⁻¹

Q: What about the kon of the same molecule?
A: 562000 M⁻¹ s⁻¹

Q: For B4, which Kd is on record?
A: 9.36 nM

Q: What about the koff of the same molecule?
A: 0.00576 s⁻¹

Q: And the kon?
A: 616000 M⁻¹ s⁻¹

Q: How did the Kd turn out when B5 was run?
A: 8.43 nM

Q: What about the koff of the same molecule?
A: 0.00357 s⁻¹

Q: And the kon?
A: 423000 M⁻¹ s⁻¹
